In the assay the target is RGD-binding integrins on HeLa cells (α5β1, αvβ5, αvβ3) (human (endogenous in HeLa)). Description: resonant waveguide grating (RWG) live-cell competitive adhesion assay; sensor coated with 50% PPR (RGD peptide); HeLa cells (8000 per well) with soluble S1 or BSA in HEPES-HBSS, 90 min; normalised adhesion fitted with a sigmoidal curve; Kd calculated from the IC50 with [RGD] 2.39 µM and Kd^RGD 9.4 µM.

In general, IC50 refers to the concentration that gives 50% inhibition. As a reminder, the Kd is a measure of binding affinity in units of concentration. Turning to “recombinant human coronavirus SARS-CoV-2 Spike Glycoprotein S1 (Active)”, the IC50 was 1.4 µM and the Kd is 1.12 µM.
